Test results reported in patent publication US20210171630A1 (MacroGenics, published 2021).

Columns and labels:
Test in all cases: SPR (ProteOn); CD16-His immobilized via anti-PentaHis, diabody passed over
[1] = biological target: T1, Human CD16A V158F, His tagged (R&D Systems) (human, UniProt P08637 17-208)
T1 construct: Bought (R&D Systems); also called CD16-His tagged molecules; not shown: His tag
Procedure: (§1) A ProteOn analysis was conducted to assess the binding of the CD16 Binding Domains of the constructed diabodies to CD16-His tagged molecules (R&D Systems) that had been immobilized on a chip. The CD16 molecules were immobilized via an anti-PentaHis antibody, followed by incubation incubation with the diabodies.

[2] = biological target: T2, Human CD16A 158V, His tagged (R&D Systems) (human, UniProt P08637 17-208)
T2 construct: Bought (R&D Systems); also called CD16-His tagged molecules; not shown: His tag
Procedure: as §1

[3] = biological target: T3, Human CD16B, His tagged (R&D Systems) (human, UniProt O75015 17-200)
T3 construct: Bought (R&D Systems); also called CD16-His tagged molecules; not shown: His tag
Procedure: as §1

T1 sequence (P08637 17-208 limits assumed, stated change not applied): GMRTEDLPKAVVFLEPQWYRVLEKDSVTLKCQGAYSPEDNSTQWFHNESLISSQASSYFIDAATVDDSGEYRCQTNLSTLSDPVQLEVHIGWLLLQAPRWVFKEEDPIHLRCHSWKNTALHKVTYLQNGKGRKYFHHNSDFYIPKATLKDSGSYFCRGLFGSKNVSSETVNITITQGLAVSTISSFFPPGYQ
T2 sequence (P08637 17-208 F176V limits assumed): as the sequence (P08637 17-208 limits assumed, stated change not applied) above, with F160V counted along it
T3 sequence (O75015 17-200 limits assumed): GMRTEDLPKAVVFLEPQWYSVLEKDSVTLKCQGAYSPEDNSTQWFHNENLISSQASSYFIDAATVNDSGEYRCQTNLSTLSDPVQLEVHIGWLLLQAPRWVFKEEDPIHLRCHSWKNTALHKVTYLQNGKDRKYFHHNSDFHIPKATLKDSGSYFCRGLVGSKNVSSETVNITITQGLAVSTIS

B1: DART-H (bispecific antibody)
chain 1: DIVMTQSPDSLAVSPGERATIHCKSSQTLLYSSNNRHSIAWYQQRPGQPPKLLLYWASMRLSGVPDRFSGSGSGTDFTLTINNLQAEDVAIYYCHQYSSHPPTFGHGTRVEIKGGGSGGGGEVQLVESGGGLVKPGGSLRLSCAASGFTFSNYGMSWVRQAPGKGLEWVATISGGGSYTFYPDSVKGRFTISRDNAKNSLYLQMNSLRTEDTALYYCVRQSARAPEPYWGQGTLVTVSSASTKGEVAACEKEVAALEKEVAALEKEVAALEKGGGDKTHTCPPCPAPEAAGGPSVFLFPPKPKDTLMISRTPEVTCVVVDVSHEDPEVKFNWYVDGVEVHNAKTKPREEQYNSTYRVVSVLTVLHQDWLNGKEYKCKVSNKALPAPIEKTISKAKGQPREPQVYTLPPSREEMTKNQVSLWCLVKGFYPSDIAVEWESNGQPENNYKTTPPVLDSDGSFFLYSKLTVDKSRWQQGNVFSCSVMHEALHNHYTQKSLSLSPGK
chain 2: DIQMTQSPSFLSASVGDRVTITCRASQNVGTHVAWYQQKPGKAPKSLLYSASYRYSGVPSRFSGSGSGTDFTLTISSLQSEDIATYYCQQYKSYPLTFGQGTKLEIKGGGSGGGGQVQLVQSGGGVFKPGGSLRLSCEASGFTFTEYYMTWVRQAPGKGLEWLAYISKNGEYSKYSPSSNGRFTISRDNAKNSVFLQLDRLSADDTAVYYCARADGLTYFSELLQYIFDLWGQGARVTVSSASTKGKVAACKEKVAALKEKVAALKEKVAALKE
chain 3: not shown
notes: Three-chain diabody; hCD16-M1 x 7B2
For B1, the Kd [1] was 0.04 nM, the Kd [2] was 0.1 nM and the Kd [3] was 0.4 nM.

B2: DART-Z (bispecific antibody)
chain 1: QSALTQPPSASGSPGQSVTISCTGTSSDVGGYNYVSWYQHHPGKAPKLIISEVNNRPSGVPDRFSGSKSGNTASLTVSGLQAEDEAEYYCSSYTDIHNFVFGGGTKLTVLGGGSGGGGEEVQLVQSGAEVKKPGESLKVSCKASGYTFTSYYMHWVRQAPGQGLEWMGIINPSGGSTSYAQKFQGRVTMTRDTSTSTVYMELSSLRSEDTAVYYCARGSAYYYDFADYWGQGTLVTVSSASTKGEVAACEKEVAALEKEVAALEKEVAALEK
chain 2: QPVLTQPSSVSVAPGQTATISCGGHNIGSKNVHWYQQRPGQSPVLVIYQDNKRPSGIPERFSGSNSGNTATLTISGTQAMDEADYYCQVWDNYSVLFGGGTKLTVLGGGSGGGGQVQLQESGPGLVKPSQTLSLSCTVSGGSSSSGAHYWSWIRQYPGKGLEWIGYIHYSGNTYYNPSLKSRITISQHTSENQFSLKLNSVTVADTAVYYCARGTRLRTLRNAFDIWGQGTLVTVSSASTKGKVAACKEKVAALKEKVAALKEKVAALKE
notes: also called 4-LS21
In the case of B2, the Kd [1] is reported as 15.2 nM and the Kd [2] is reported as 15.7 nM.

B3: DART-4 (bispecific antibody)
chain 1: DIVMTQSPDSLAVSPGERATIHCKSSQTLLYSSNNRHSIAWYQQRPGQPPKLLLYWASMRLSGVPDRFSGSGSGTDFTLTINNLQAEDVAIYYCHQYSSHPPTFGHGTRVEIKGGGSGGGGQVTLRESGPALVKPTQTLTLTCTFSGFSLSTSGMGVGWIRQPPGKALEWLAHIWWDDDKRYNPALKSRLTISKDTSKNQVVLTMTNMDPVDTATYYCAQINPAWFAYWGQGTLVTVSSASTKGEVAACEKEVAALEKEVAALEKEVAALEKGGGDKTHTCPPCPAPEAAGGPSVFLFPPKPKDTLMISRTPEVTCVVVDVSHEDPEVKFNWYVDGVEVHNAKTKPREEQYNSTYRVVSVLTVLHQDWLNGKEYKCKVSNKALPAPIEKTISKAKGQPREPQVYTLPPSREEMTKNQVSLWCLVKGFYPSDIAVEWESNGQPENNYKTTPPVLDSDGSFFLYSKLTVDKSRWQQGNVFSCSVMHEALHNHYTQKSLSLSPGK
chain 2: DIVMTQSPDSLAVSLGERATINCKASQSVDFDGDSFMNWYQQKPGQPPKLLIYTTSNLESGVPDRFSGSGSGTDFTLTISSLQAEDVAVYYCQQSNEDPYTFGQGTKLEIKGGGSGGGGQVQLVQSGGGVFKPGGSLRLSCEASGFTFTEYYMTWVRQAPGKGLEWLAYISKNGEYSKYSPSSNGRFTISRDNAKNSVFLQLDRLSADDTAVYYCARADGLTYFSELLQYIFDLWGQGARVTVSSASTKGKVAACKEKVAALKEKVAALKEKVAALKE
chain 3: not shown
For B3, the Kd [1] was 76.8 nM, the Kd [2] was 23.3 nM and the kon [2] was 290000 M⁻¹ s⁻¹. The Kd [3] was 7.8 nM.
